Source: patent US20200010523A1 (INSTITUTE FOR CANCER RESEARCH, published 2020)

Target: T1, human Müllerian-inhibiting substance type II receptor (MISIIR) (human, UniProt Q16671 18-573)
T1 sequence (looked up): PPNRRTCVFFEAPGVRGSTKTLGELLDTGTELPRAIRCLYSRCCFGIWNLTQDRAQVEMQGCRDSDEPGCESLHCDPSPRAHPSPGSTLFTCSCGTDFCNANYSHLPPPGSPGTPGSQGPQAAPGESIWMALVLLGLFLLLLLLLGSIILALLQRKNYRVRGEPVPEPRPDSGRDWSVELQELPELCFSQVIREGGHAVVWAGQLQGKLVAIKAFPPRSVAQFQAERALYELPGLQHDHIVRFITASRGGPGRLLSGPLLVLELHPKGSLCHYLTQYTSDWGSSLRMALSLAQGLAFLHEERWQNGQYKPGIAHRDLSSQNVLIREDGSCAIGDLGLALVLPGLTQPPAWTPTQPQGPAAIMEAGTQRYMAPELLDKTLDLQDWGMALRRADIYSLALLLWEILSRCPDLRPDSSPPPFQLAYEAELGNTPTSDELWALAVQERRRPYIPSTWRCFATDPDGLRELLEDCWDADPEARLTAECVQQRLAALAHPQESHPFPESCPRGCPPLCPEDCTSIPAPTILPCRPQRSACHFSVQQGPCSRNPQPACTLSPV
Test: cell-based or functional assay

B1: Müllerian-inhibiting substance (MIS) (ligand)
chain: SAGATAADGPCALRELSVDLRAERSVLIPETYQANNCQGVCGWPQSDRNPRYGNHVVLLLKMQVRGAALARPPCCVPTAYAGKLLISLSEERISAHHVPNMVATECGCR
  expression of a luciferase reporter gene over background levels, 10 nM, 3-day assay, P19 reporter cell line: ~10 fold
